PMC5507356, “Characterization of the molecular chaperone ClpB from the pathogenic spirochaete Leptospira interrogans” (PLoS ONE, 2017)

Molecular target: the molecule itself
Assay: AUC; sedimentation velocity, 1.2 mg/ml ClpBLi with 2 mM ATPγS, 20°C, 50 mM Tris-HCl pH 7.5, 200 mM KCl, 20 mM MgCl2, 1 mM EDTA, 2 mM β-mercaptoethanol, 5% glycerol

B1: ClpB from Leptospira interrogans (ClpBLi), recombinant (natural protein)
chain: not shown
notes: Chaperone protein ClpB, Leptospira interrogans; intact protein runs at ~100 kDa; Monomer without nucleotide, hexamer with ATPγS; source: E. coli BL21(DE3), purified (Co-NTA IMAC, Superdex 200 gel filtration); not shown: His6, N-terminal, cleaved
stoichiometry N: 6
